In the test the target is EpCAM (epithelial cell adhesion molecule) on cells (UniProt P16422). The test can be described thus: cell-based or functional assay.
UniProt P16422, sequence (P16422 24-314 limits assumed): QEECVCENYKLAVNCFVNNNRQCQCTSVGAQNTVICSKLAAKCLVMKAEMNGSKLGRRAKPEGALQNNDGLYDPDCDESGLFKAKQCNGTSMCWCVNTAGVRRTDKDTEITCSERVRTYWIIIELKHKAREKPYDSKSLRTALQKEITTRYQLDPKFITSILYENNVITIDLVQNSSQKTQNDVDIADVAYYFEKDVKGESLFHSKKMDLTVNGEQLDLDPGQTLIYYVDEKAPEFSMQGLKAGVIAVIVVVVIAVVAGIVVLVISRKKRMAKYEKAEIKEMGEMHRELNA

B1: EpCAMscFv-HveA adapter (fused protein of scFv for EpCAM and HveA82 extracellular domain of HVEM) (protein)
chain: DIQMTQSPSSLSASVGDRVTITCRSTKSLLHSNGITYLYWYQQKPGKAPKLLIYQMSNLASGVPSRFSSSGSGTDFTLTISSLQPEDFATYYCAQNLEIPRTFGQGTKVELKRATPSHNSHQVPSAGGPTANSGTSGSEVQLVQSGPGLVQPGGSVRISCAASGYTFTNYGMNWVKQAPGKGLEWMGWINTYTGESTYADSFKGRFTFSLDTSASAAYLQINSLRAEDTAVYYCARFAIKGDYWGQGTLLTVSSGGGGSEFLPSCKEDEYPVGSECCPKCSPGYRVKEACGELTGTVCEPCPPGTYIAHLNGLSKCLQCQMCDPAMGLRASRNCSRTENAVCGHHHHHH
B1 had a cell viability of BT-474 cells 5 days after infection with EADa-S virus of 34%, a cell viability of MCF-7 cells 5 days after infection with EADa-S virus of 31% and a cell viability of MDA-MB-453 cells 5 days after infection with EADa-S virus of 19%.

Source of the values: patent US20220305066A1.
